Here are results for 27 sequences from the supplement of paper PMC9170038.

This data set relates to MS2 coat protein. Description: apparent KD of MS2 coat protein; designed switch direction (-1 OFF switch, 1 ON switch): 1; higher = weaker reporter binding. The gist of the method: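 Designed RNA switches sharing common flanks were transcribed on Illumina chips by stalled E. coli RNA polymerase. They were titrated with SNAP-549-labelled MS2 coat protein, from 0.7 or 1.5 nM doubling to 3 µM, in Tris-HCl pH 7.5 buffer with KCl, MgCl2, BSA, DTT, tRNA and Tween-20. Titrations ran without input, with 200 uM small-molecule ligand, or with an oligonucleotide input. The apparent KD of each design is the median over its clusters, after curve-fitting of normalised cluster fluorescence.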

[1] abbreviates: Eterna round: R95, input ligand: microRNA oligo, concentration not stated.
Where [2] appears, read: input ligand: microRNA oligo, concentration not stated.
The mark [3] stands for this setting: Eterna round: R95, input ligand: FMN 200 uM.
The mark [4] stands for this setting: Eterna round: R95, input ligand: none.

For the sequence “GCAGGACAUGAGGAUCACCCAUGUCUCAAAUAUUGAGGAUAUGGACACGGUAUAUCCGAACCAGAAGGCAACCUGC [SS1 Teenbexe 20] (puzzle: Same State 1)”, the “apparent KD of MS2 coat protein” value under setting [1] is 47.3 nM.
With “GCAGGACGAUAAUAUAUCUCACAUGAGGAUCACCCAUGUCGUGAGGAUAUGGAUCCUAAUUGGAUCCAGAAGGCAUGGUCCUGC [Fiskers NG3ss - 31] (Eterna round: R96, puzzle: Same State NG 3)”, the “apparent KD of MS2 coat protein” value is 18.5 nM (input ligand: FMN 200 uM), 14.2 nM under setting [2] and 20.7 nM (input ligand: none).
In the same order, the values of “GCAGGACGAUAAUAUAUCUUCACAUGAGGAUCACCCAUGUCUCAGGAUAUGGAUCCUAAUUGGAUCCAGAAGGGAGCGUCCUGC [Fiskers NG3ss - 33] (Eterna round: R96, puzzle: Same State NG 3)” are 33.2 nM, 43.3 nM and 54.4 nM.
In the case of “GCAGUACUAGCAGAGGAUAUGUCGGUAACGACAUGAGGAUCACCCAUGUGUACGAAAGUGCUCAGACAGAAGGCUGAGUACUGCU [Same State 2 - Hyphema v.1] (puzzle: Same State 2)”, the “apparent KD of MS2 coat protein” value reads like this: under setting [3], 17.8 nM; under setting [1], 58.4 nM; under setting [4], 78.4 nM.
Regarding “GCCAACUAAUGAGGAUAUGGCACCUUAUUGGUGCCAGAAGGCAUGUCAAUUGACAUGAGGAUCACCCAUGUAUUAUAGUUGGCG [salish99_SSNG1_r04_601] (Eterna round: R96, puzzle: Same State NG 1)”, the “apparent KD of MS2 coat protein” value under setting [2] stood at 438 nM.
On to “GCCAACUCAUGAGGAUAUGGCACCUUAUUGGUGCCAGAAGGCAUGUCAAUUGACAUGAGGAUCACCCAUGUAUUAUAGUUGGCA [Fiskers NG1ss - 22] (Eterna round: R96, puzzle: Same State NG 1)”, for which the “apparent KD of MS2 coat protein” value was 62.5 nM (input ligand: FMN 200 uM), 267 nM under setting [2] and 489 nM (input ligand: none).
In the same order, the values of “GCCAUCGAGUGAGGAUAUGGCACCGAAACGGUGCCAGAAGGCAUGUCAAUUGACAUGAGGAUCACCCAUGUAUUAUCGAUGGCA [Mat - Same State NG 1 - JL mod - D87] (Eterna round: R96, puzzle: Same State NG 1)” are 154 nM, 726 nM and 1690 nM.
Take “GCCCAUAGUAUAUGGGUACAAGCUUUUUGACAUGAGGAUCACCCAUGUACUCGUCUUAUGUGCAGUCCGUAGACUGC [JL-shm-2.18 Brourd mod] (puzzle: Sensor for hsa-mir-208a)”: the “apparent KD of MS2 coat protein” value under setting [3] is 61.9 nM, the “apparent KD of MS2 coat protein” value under setting [1] turned out to be 15.3 nM and the “apparent KD of MS2 coat protein” value under setting [4] stood at 66.6 nM.
As to “GCCGCGUUUCGCGCCUACAUGAGGAUCACCCAUGUUUGUGGGCAGGAUAUCGUCCGCUCUGCGGGCGAGAAGGGCUGUUGUGGU [salish99_SSNG3_R04_026] (Eterna round: R96, puzzle: Same State NG 3)”, the “apparent KD of MS2 coat protein” value under setting [2] came out at 40.9 nM.
As for “GCCGCGUUUCGCGCCUACAUGAGGAUCACCCAUGUUUGUUGGCAGGAUAUCGUCCGCUCUGCGGGCGAGAAGGGCUGUUGUGGU [salish99_SSNG3_R04_025] (Eterna round: R96, puzzle: Same State NG 3)”, the “apparent KD of MS2 coat protein” value by setting is: (input ligand: FMN 200 uM) 38.4 nM; under setting [2], 18 nM; (input ligand: none) 25.4 nM.
In the case of “GCCGGACCGGAAGGAUAUGUUCCCGGUGCAGCGGGAGACAUGAGGAUCACCCAUGUACUAUAACGACAGAAGGUCCAACCAGCG [Eternabot solution 21] (Eterna round: R96, puzzle: Same State NG 2)”, the “apparent KD of MS2 coat protein” value reads like this: (input ligand: FMN 200 uM) 18.7 nM; under setting [2], 16.4 nM; (input ligand: none) 22.5 nM.
As to “GCCGGCUGAUGAGGAUAUGGCACCUUAUUGGUGCCAGAAGGCAUGUCAAUUGACAUGAGGAUCACCCAUGUAUUAUAGUUGGCG [salish99_SSNG1_r04_604] (Eterna round: R96, puzzle: Same State NG 1)”, the “apparent KD of MS2 coat protein” value came out at 117 nM (input ligand: FMN 200 uM), 233 nM under setting [2] and 326 nM (input ligand: none).
As for “GCCGGCUGGUGAGGAUAUGGCACCUUAUUGGUGCCAGAAGGCAUGUCAAUUGACAUGAGGAUCACCCAUGUGUUGUCGUUGGCG [salish99_SSNG1_r04_609] (Eterna round: R96, puzzle: Same State NG 1)”, the “apparent KD of MS2 coat protein” value runs as follows: (input ligand: FMN 200 uM) 698 nM; under setting [2], 72.4 nM; (input ligand: none) 742 nM.
Regarding “GCCGUAAUAACAUGAGGAUCACCCAUGUGCGCGAGAGUGGAUGAGGAUAUCGAUGGGUUUCCCGUCGAGAAGGCGUGGGUCGGC [JL SSNG3 3.98] (Eterna round: R96, puzzle: Same State NG 3)”, the “apparent KD of MS2 coat protein” value runs as follows: (input ligand: FMN 200 uM) 28 nM; under setting [2], 24.5 nM; (input ligand: none) 38.5 nM.
In the same order, the values of “GCGAAGAGGUAAGGAUAUGCAUGGCGGAGACAUGAGGAUCACCCAUGUUGGAGACGAAAUCUAGGGUAGAAGGUACCAGGAAGC [AK SSNG2-V2-12] (Eterna round: R96, puzzle: Same State NG 2)” are 61.9 nM, 52.6 nM and 72.1 nM.
For “GCGAGCGUACUUGCUACAUGAGGAUCACCCAUGUUUUAUGGACAGGAUAUGGUACCGUUUCGGUACCAGAAGGGUCCACAUGUA [JL SSNG3 3.84] (Eterna round: R96, puzzle: Same State NG 3)”, in that order: 130 nM, 579 nM and 453 nM.
With “GCGAGUGCCACAGGAUAUUCGGCUGUUUCGCUCGAAGAAGGGUGCCGCAUGCAAUAAAGAAAACAUGAGGAUCACCCAUGUGAA [Uszavege] (Eterna round: R96, puzzle: Same State NG 1)”, the “apparent KD of MS2 coat protein” value runs as follows: (input ligand: FMN 200 uM) 527 nM; under setting [2], 217 nM; (input ligand: none) 418 nM.
“GCGGAACGGGCCGACAUGAGGAUCACCCAUGUGCCCUCAUGUAAGGAUAUCGGGAAGAAGAAAACCGAGAAGGUACGGUGACGC [AK SSNG3-V2-30] (Eterna round: R96, puzzle: Same State NG 3)”: the “apparent KD of MS2 coat protein” value came to 945 nM (input ligand: FMN 200 uM), 51.5 nM under setting [2] and 137 nM (input ligand: none).
With “GCGGCGGCACGGCAGGAUAUGAUAUAACCUACAUGAGGAUCACCCAUGUCGGCGGGUUGCAAAAUUCAGAAGGGCCCUGUAGGCC [Inberere] (puzzle: Same State 2)”, the “apparent KD of MS2 coat protein” value is, setting by setting: under setting [3], 21.8 nM; under setting [1], 34.4 nM; under setting [4], 37.2 nM.
As for “GCUACCAAAGAAGCCAACAUGAGGAUCACCCAUGUAUGUUGGUAGGAUAUCGUUUGCAAAGCGAACGAGAAGGGCUAAGGUAGC [Mat - Same State NG 3 - JL Mod - D85] (Eterna round: R96, puzzle: Same State NG 3)”, the “apparent KD of MS2 coat protein” value is, setting by setting: (input ligand: FMN 200 uM) 151 nM; under setting [2], 88.1 nM; (input ligand: none) 101 nM.
In the same order, the values of “GCUAGAAAUAAAGCCAACAUGAGGAUCACCCAUGUAUGUUGGCAGGAUAUCGUAUGCAAAGCAUACGAGAAGGGCUAAACUAGC [Mat - Same State NG 3 - JL Mod - D6] (Eterna round: R96, puzzle: Same State NG 3)” are 129 nM, 149 nM and 201 nM.
In the case of “GCUAGAAAUAAAGCCAACAUGAGGAUCACCCAUGUAUGUUGGUAGGAUAUCGUUUGCAAAGCAAACGAGAAGGGCCAAACUAGC [Mat - Same State NG 3 - JL Mod - D20] (Eterna round: R96, puzzle: Same State NG 3)”, the “apparent KD of MS2 coat protein” value turned out to be 86.5 nM (input ligand: FMN 200 uM), 104 nM under setting [2] and 137 nM (input ligand: none).
In the case of “GCUAGAAUUAAAGCCAACAUGAGGAUCACCCAUGUAUGUUGGCAGGAUAUCGUUUGCUUUGCAAACGAGAAGGGCCAAACUAGC [JL SSNG3 1.01] (Eterna round: R96, puzzle: Same State NG 3)”, the “apparent KD of MS2 coat protein” value runs as follows: (input ligand: FMN 200 uM) 20.6 nM; under setting [2], 76.1 nM; (input ligand: none) 120 nM.
For “GCUAGAAUUAACGCCUACAUGAGGAUCACCCAUGUAUGUAGGCAGGAUAUCGUUUGCUUUGCAAACGAGAAGGGCCUUACUAGC [JL SSNG3 1.11] (Eterna round: R96, puzzle: Same State NG 3)”, in that order: 22.3 nM, 53.3 nM and 42 nM.
For “GCUAGGAAAUAAGCCAACAUGAGGAUCACCCAUGUAUGUUGGUAGGAUAUCGUAUGCAAAGCAUACGAGAAGGGCUAACCUAGC [Mat - Same State NG 3 - JL Mod - D71] (Eterna round: R96, puzzle: Same State NG 3)”, in that order: 69.5 nM, 62.8 nM and 76 nM.
For “GCUCGAAUCAAAACCAACAUGAGGAUCACCCAUGUAUGUUGGUAGGAUAUCGUUUGCUUUGCAAACGAGAAGGGCCAAACGAGC [SameState NG3 #3] (Eterna round: R96, puzzle: Same State NG 3)”, the “apparent KD of MS2 coat protein” value (input ligand: FMN 200 uM) is 69.2 nM, the “apparent KD of MS2 coat protein” value under setting [2] is 121 nM and the “apparent KD of MS2 coat protein” value (input ligand: none) came to 127 nM.
In the same order, the values of “GCUCGACGUAUUGUCUACAUGAGGAUCACCCAUGUAGGUGCGGAGGAUAUUUACGUGUCUCAUGUAGAGAAGGUCGUGUCGAGC [SameState NG3 #95] (Eterna round: R96, puzzle: Same State NG 3)” are 912 nM, 47.4 nM and 46.8 nM.
